How the values were obtained:
Assay in all cases: BLI
[1] = target: triazole-linked ^triazole72Ub^ADPr, biotinylated (UniProt P0CG48)
[2] = target: triazole-linked ^triazole42Ub^Pr (6), biotinylated (UniProt P0CG48)
[3] = target: unmodified ubiquitin, biotinylated (biotin-Ub) (UniProt P0CG48)
[4] = target: triazole-linked ^triazole42Ub^ADPr (4), biotinylated (UniProt P0CG48)
[5] = target: triazole-linked ^triazole42Ub^me-ADPr (5), biotinylated (UniProt P0CG48)
[6] = target: natively linked ^Arg42Ub^ADPr, biotinylated (UniProt P0CG48)

Substance	Kd [1]	fold reduction of affinity against 4 and 5 [2]	fold reduction of affinity against 4 and 5 [3]	Kd [4]	Kd [5]	Kd [6]	Kd [3]
DupA-H67A lacking the GST tag (from UniProt Q5ZTK7 1-301) (enzyme)	9300 nM	> 15 fold	> 15 fold	2200 nM	1200 nM		
glutathione S-transferase (GST)-tagged DupA-H67A (from UniProt Q5ZTK7 1-301) (enzyme)				11.2 nM	10.6 nM	5.7 nM	54.5 nM

From article PMC7898697
